The target in assay [1] is T1, BTN1A1 Peptide 4 (human).
T1 construct: also called BTN1A1-pep4- WT; Pep4
T1 peptide: EVEVGDRTDWAIGVC
Put plainly: ELISA clone screen, STCube, negative control. For orientation: ELISA stands for enzyme-linked immunosorbent assay.

The target of assay [2] is T2, denatured hBTN1A1 ICD (human, UniProt Q13410 270-526).
T2 construct: Same protein as hBTN1A1 ICD, denatured before the ELISA; also called hBTN1A1 ICD denatured; Denatured ICD
T2 sequence: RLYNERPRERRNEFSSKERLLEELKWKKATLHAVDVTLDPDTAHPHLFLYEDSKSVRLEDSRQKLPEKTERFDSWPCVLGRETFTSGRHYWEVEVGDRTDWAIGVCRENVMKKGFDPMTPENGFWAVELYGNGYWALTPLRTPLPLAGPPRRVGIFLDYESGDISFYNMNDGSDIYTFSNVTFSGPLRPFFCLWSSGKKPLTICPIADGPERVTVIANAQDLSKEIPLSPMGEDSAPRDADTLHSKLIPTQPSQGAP
Put plainly: ELISA clone screen, STCube, negative control.

Assay [3] addresses T3, hBTN1A1 ICD (human, UniProt Q13410 270-526).
T3 sequence: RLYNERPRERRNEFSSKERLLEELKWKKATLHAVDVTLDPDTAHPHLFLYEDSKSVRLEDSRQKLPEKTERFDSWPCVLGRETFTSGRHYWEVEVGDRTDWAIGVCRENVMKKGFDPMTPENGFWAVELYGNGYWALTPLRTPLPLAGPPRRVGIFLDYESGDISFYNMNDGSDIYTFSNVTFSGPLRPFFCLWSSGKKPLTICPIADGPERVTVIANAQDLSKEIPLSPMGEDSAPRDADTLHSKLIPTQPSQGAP
The experiment in a line: ELISA clone screen, STCube, negative control.

Assay [4] addresses T1, BTN1A1 Peptide 4. Put plainly: ELISA clone screen, GenScript, negative control.
Assay [5] concerns the target T2, denatured hBTN1A1 ICD. The experiment in a line: ELISA clone screen, GenScript, negative control.
Assay [6] has as its target T3, hBTN1A1 ICD. Put plainly: ELISA clone screen, GenScript, negative control.
For the next assay, the target named is T4, ECD1 Peptide.
T4 construct: also called BTN1A1 ECD1
T4 peptide: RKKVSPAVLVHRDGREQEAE
Put plainly: ELISA clone screen.

The target of assay [7] is T5, hBTN1A1-His (human, UniProt Q13410).
T5 construct: also called human BTN1A1-His
T5 sequence (antigen, looked up): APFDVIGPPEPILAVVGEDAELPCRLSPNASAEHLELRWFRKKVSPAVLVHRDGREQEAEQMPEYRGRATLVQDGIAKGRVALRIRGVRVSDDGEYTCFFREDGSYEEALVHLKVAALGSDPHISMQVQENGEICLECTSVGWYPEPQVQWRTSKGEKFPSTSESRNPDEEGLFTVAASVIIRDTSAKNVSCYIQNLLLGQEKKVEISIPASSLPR
The experiment in a line: ELISA clone screen.

The target of a further assay is KLH Only (keyhole limpet). Put plainly: ELISA clone screen.
Chain of KLH Only (keyhole limpet) (Q10583 17-3414): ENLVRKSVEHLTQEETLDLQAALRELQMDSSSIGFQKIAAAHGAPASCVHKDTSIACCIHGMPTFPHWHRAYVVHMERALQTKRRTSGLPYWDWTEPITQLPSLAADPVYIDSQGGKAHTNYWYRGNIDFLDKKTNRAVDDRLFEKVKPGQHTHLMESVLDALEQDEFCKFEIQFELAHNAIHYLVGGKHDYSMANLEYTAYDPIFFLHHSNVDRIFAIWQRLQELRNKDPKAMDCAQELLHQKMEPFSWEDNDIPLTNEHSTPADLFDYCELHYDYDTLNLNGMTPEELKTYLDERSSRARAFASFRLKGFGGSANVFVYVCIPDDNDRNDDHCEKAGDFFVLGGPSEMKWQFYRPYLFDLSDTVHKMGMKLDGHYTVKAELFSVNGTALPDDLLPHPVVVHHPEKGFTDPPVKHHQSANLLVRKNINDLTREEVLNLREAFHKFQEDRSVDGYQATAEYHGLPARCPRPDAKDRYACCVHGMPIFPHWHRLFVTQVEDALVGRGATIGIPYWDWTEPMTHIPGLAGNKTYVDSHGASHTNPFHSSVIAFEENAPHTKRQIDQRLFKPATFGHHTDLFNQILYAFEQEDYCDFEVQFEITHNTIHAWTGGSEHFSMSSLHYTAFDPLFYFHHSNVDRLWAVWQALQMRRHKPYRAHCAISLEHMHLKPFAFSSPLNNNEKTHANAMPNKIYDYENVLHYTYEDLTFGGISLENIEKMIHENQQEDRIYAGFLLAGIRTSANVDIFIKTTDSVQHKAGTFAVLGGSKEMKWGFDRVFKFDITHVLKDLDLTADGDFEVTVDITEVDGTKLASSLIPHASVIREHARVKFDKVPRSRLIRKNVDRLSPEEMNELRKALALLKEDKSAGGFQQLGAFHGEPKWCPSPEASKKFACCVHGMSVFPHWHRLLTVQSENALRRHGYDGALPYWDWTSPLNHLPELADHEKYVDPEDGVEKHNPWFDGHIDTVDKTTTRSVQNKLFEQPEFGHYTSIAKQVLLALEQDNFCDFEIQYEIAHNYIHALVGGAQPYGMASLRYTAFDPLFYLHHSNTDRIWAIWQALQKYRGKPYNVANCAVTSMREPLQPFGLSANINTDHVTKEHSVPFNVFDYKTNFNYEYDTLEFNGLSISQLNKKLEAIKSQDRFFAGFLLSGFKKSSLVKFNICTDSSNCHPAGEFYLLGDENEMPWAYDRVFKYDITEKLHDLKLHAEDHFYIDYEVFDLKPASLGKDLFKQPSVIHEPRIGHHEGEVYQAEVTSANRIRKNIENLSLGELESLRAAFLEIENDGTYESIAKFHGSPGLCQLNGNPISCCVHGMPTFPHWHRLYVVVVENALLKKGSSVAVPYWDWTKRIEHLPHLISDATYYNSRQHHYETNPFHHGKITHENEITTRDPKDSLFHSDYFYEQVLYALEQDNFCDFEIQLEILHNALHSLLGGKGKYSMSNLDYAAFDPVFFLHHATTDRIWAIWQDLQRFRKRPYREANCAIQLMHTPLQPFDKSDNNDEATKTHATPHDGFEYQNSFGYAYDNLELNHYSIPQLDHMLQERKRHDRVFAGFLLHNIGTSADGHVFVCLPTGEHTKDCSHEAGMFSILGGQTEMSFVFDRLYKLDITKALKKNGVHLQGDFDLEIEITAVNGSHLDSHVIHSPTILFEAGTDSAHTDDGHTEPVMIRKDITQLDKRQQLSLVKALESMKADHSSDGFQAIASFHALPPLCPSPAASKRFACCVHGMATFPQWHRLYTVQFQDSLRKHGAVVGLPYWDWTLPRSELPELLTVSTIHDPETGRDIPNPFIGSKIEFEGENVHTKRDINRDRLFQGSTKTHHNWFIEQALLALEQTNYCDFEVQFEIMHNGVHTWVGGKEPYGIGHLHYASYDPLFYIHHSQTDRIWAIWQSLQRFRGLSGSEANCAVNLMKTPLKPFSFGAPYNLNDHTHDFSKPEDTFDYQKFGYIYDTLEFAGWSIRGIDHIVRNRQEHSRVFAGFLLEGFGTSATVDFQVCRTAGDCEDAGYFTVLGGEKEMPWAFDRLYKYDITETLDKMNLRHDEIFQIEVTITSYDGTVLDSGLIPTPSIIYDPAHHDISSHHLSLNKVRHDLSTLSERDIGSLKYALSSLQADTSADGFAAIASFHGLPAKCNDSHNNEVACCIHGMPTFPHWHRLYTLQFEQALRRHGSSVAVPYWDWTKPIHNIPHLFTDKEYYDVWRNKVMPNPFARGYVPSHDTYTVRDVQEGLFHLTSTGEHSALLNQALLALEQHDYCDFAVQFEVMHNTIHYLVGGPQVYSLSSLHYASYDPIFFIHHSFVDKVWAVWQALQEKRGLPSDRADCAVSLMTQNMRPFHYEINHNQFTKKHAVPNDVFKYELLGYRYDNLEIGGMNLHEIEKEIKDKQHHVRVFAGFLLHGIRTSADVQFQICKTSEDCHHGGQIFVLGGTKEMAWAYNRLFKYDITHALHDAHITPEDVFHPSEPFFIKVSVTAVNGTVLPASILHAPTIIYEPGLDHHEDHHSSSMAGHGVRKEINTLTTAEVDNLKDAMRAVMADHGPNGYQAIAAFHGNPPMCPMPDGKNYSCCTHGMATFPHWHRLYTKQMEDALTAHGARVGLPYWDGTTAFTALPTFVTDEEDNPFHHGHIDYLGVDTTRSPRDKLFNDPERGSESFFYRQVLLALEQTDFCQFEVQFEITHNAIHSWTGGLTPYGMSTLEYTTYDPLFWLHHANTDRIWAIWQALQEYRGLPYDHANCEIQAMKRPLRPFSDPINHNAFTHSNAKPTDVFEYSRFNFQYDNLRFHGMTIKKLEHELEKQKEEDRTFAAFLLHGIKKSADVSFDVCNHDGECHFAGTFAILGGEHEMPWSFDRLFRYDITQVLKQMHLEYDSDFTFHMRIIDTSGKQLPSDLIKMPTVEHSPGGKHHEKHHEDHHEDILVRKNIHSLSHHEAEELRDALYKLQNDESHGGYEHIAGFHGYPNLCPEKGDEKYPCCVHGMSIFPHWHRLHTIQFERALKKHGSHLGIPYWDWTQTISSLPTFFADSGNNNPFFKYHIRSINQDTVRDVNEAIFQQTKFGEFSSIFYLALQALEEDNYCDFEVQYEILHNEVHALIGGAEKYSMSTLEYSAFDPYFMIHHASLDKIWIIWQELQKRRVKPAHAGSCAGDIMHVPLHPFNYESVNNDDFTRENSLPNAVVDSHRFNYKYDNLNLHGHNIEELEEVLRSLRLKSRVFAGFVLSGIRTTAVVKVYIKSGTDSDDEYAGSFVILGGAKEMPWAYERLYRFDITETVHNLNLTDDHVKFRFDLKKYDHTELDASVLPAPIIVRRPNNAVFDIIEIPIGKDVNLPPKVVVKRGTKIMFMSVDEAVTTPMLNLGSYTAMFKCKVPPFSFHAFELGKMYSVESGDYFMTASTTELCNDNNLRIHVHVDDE
In assay [8] the target is T5, hBTN1A1-His. Put plainly: ELISA, titration of purified antibody.
The target of assay [9] is T5, hBTN1A1-His. Put plainly: ELISA, titration of purified antibody. The source holds these as a separate data set.

Like-named read-outs stand apart in the source and are kept apart here.

As to “Negative (control of the clone screen ELISA)”, the ELISA signal with BTN1A1 Peptide 4 [1] came to 0.048; in the assay with denatured hBTN1A1 ICD [2], 0.041; in the assay with hBTN1A1 ICD [3] it was 0.04; in the assay with BTN1A1 Peptide 4 [4], 0.074; with denatured hBTN1A1 ICD [5], 0.062; in the assay with hBTN1A1 ICD [6], 0.063.

B1: STC85F1-1 (antibody, V domains shown)
VH: QSLEESGGRLVTPGGSLTLTCTVSGIDLSRYGVNWVRQAPGKGLEWIGYIGTTSNTYYASWAKGRFTISKTSSTTVDLKMTSLTTEDTATYFCARSVVSPSNSSFWGQGTLVTVSS
VL: DPVMTQTPSSTSAAVGGTVTINCQSSQSVYNNKNLSWFQQKPGQPPKLLIYRASTLPSGVPSRFKGSGSGTQFTLTISDLECDDAATYYCAGGYSGDINVFGGGTEVVVK
notes: From immunized New Zealand rabbits; IgG heavy chain and Kappa light chain; Variable domains without signal peptide; also called clone #85F1-1
Turning to B1, the “O.D. 450 nm” value with ECD1 Peptide was determined as 3.18; with hBTN1A1-His [7], 2.91; with KLH Only it was 0.051. Moreover, in the assay with hBTN1A1-His [8], the EC50 (read off the curve) – broadly, the midpoint of the concentration-response curve – was about 0.02 µg/mL.

B2: STC43G3-1 (antibody, V domains shown)
VH: QSLEESGGRLVTPGTPLTLTCTVSGIDLSRYGVNWVRQAPGKGLEWIGYIGTTGNTYYASWVNGRFTISKTSTTVELKMTSLTAADTATYFCARSVVSPSNSSFWGQGTLVTVSS
VL: DPVMTQTPSSTSAAVGGTVTINCQSSQSVYNNNNLSWFQQKPGQPPKLLIYRASKLPSGVPPRFSGSGSGTQFTLTISSVQCDDAATYFCAGGYSGDINVFGGGTEVVVK
notes: From immunized New Zealand rabbits; IgG heavy chain and Kappa light chain; Variable domains without signal peptide; also called clone #43G3-1
For the molecule B2, the “O.D. 450 nm” value worked out at 2.66 with ECD1 Peptide, 2.1 with hBTN1A1-His [7] and 0.052 with KLH Only. Besides, in the assay with hBTN1A1-His [9], the “EC50 (read off the curve)” value is about 0.02 µg/mL.

For the origin of these results see patent publication US20250189530A1 (STCUBE, published 2025).
